The target in assay [1] is T1, Skp1-FBXW7 complex (human, UniProt P63208 1-149; Q969H0 263-707). Kind of assay: FP; direct titration.
The target in assay [2] is T1, Skp1-FBXW7 complex. Kind of assay: FP; competition, unlabeled peptide.

Where no end group is shown, it is not given here. [ ]: non-standard residue; d: D form. pT = C[C@@H](OP(=O)(O)O)[C@H](N)C(=O)O; pS = N[C@@H](COP(=O)(O)O)C(=O)O; CF = carboxyfluorescein

T1 sequence (P63208 1-149, chain 1 of 2): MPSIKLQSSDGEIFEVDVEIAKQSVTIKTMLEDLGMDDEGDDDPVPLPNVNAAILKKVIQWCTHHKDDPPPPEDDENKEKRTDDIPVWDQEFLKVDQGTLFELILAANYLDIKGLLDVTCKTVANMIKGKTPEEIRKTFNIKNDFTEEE
T1 sequence (Q969H0 263-707, chain 2 of 2): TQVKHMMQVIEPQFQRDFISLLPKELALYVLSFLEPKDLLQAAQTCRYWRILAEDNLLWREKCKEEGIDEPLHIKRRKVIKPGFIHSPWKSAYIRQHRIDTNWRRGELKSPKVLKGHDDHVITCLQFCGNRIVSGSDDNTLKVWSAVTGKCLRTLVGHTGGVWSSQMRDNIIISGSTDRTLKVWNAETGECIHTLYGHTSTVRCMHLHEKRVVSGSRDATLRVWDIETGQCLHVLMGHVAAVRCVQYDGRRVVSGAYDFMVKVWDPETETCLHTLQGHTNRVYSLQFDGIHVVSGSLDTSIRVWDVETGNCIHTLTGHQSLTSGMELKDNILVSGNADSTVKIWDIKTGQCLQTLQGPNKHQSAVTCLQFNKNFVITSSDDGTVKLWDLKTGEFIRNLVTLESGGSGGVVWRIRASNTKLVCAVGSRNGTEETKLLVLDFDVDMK

B1: carboxyfluorescein (CF) labeled CCNE peptide (CF-PSGLLpTPPQpSGKKQ) (peptide)
peptide: {CF}-PSGLL[pT]PPQ[pS]GKKQ
As a reminder, the Kd is the concentration at which binding is half-saturated. A lower Kd goes with tighter binding. Molecule B1 came in with a Kd in the assay with Skp1-FBXW7 complex [1] of 2.8 nM. This lies in the single-digit nanomolar range.

B2: CCNE (peptide)
chain: PSGLL[pT]PPQ[pS]GKKQ
modifications: also: N-terminal carboxyfluorescein on the labelled probe form
For the molecule B2, the Kd in the assay with Skp1-FBXW7 complex [2] was 15.9 nM.

These data come from paper PMC8955265 (2022).
